Data taken from paper PMC9482650, “Quantitative fragmentomics allow affinity mapping of interactomes” (Nature Communications, 2022).

Columns and labels:
Assay in all cases: holdup assay
Set-up in all cases: key: below the threshold = too weak to quantify, mostly under pKd 3.1 to 4
Conditions in all cases: plain residues with an end cap or a label only (N-terminal biotin on a linker: ttds)
AHNAK2, Q8IVF2 = target: AHNAK2, Q8IVF2
IL16_2, Q14005 = target: IL16_2, Q14005
LNX2_4, Q8N448 = target: T1, LNX2_4, Q8N448
T1 sequence (Q8N448 595-690, limits assumed, looked up): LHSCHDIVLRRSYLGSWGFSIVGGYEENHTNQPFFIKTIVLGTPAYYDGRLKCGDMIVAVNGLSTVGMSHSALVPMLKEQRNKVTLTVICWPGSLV

MPDZ_13, O75970 = target: T2, MPDZ_13, O75970
T2 sequence (O75970 1982-2070, limits assumed, looked up): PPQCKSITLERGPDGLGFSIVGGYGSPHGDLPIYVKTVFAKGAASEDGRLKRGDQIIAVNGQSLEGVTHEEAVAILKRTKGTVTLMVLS

NHERF1_1, O14745 = target: T3, NHERF1_1, O14745
T3 sequence (O14745 9-104, limits assumed, looked up): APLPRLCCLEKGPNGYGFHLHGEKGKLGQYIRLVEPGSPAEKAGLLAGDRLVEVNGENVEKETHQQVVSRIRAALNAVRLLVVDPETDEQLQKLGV

NHERF3_2, Q5T2W1 = target: T4, NHERF3_2, Q5T2W1
T4 sequence (Q5T2W1 129-225, limits assumed, looked up): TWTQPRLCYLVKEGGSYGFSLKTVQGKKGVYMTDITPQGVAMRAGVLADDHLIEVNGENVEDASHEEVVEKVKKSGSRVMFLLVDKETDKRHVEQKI

PARD3B_2, Q8TEW8 = target: PARD3B_2, Q8TEW8
Sequence of PARD3B_2, Q8TEW8 (Q8TEW8 376-471): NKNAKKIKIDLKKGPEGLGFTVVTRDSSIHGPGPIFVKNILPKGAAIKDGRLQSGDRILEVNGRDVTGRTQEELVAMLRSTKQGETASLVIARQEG

PDLIM3, Q53GG5 = target: T5, PDLIM3, Q53GG5
T5 sequence (Q53GG5 1-94, limits assumed, looked up): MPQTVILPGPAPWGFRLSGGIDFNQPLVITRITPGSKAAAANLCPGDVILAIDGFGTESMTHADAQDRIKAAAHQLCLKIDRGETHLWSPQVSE

PDZD2_1, O15018 = target: T6, PDZD2_1, O15018
T6 sequence (O15018 80-192, limits assumed, looked up): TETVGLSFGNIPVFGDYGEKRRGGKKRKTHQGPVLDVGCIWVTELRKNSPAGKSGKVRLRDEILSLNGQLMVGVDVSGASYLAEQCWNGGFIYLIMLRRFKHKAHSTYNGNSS

PDZD2_3, O15018 = target: T7, PDZD2_3, O15018
T7 sequence (O15018 581-682, limits assumed, looked up): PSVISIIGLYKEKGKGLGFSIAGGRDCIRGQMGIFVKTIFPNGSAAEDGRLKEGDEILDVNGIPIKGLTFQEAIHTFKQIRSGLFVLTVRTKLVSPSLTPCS

PDZD7_1, Q9H5P4 = target: T8, PDZD7_1, Q9H5P4
T8 sequence (Q9H5P4 81-178, limits assumed, looked up): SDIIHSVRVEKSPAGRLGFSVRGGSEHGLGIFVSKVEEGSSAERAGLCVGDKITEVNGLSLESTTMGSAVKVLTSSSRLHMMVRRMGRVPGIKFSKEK

PTPN13_2, Q12923 = target: PTPN13_2, Q12923
Sequence of PTPN13_2, Q12923 (Q12923 1363-1462): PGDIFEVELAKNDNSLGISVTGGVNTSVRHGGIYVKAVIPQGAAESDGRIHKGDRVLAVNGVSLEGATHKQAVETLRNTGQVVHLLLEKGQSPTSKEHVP

PTPN13_4, Q12923 = target: T9, PTPN13_4, Q12923
T9 sequence (Q12923 1783-1878, limits assumed, looked up): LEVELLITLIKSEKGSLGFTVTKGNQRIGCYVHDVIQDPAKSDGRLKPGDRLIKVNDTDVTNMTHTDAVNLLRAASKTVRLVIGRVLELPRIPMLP

PTPN4, P29074 = target: T10, PTPN4, P29074
T10 sequence (P29074 512-599, limits assumed, looked up): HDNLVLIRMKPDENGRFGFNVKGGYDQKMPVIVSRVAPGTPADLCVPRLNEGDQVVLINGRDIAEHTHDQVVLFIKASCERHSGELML

Q8TEW0 = target: Q8TEW0
Q92614 = target: Q92614
Q9Y3R0 = target: Q9Y3R0
RGS12, O14924 = target: T11, RGS12, O14924
T11 sequence (O14924 17-108, limits assumed, looked up): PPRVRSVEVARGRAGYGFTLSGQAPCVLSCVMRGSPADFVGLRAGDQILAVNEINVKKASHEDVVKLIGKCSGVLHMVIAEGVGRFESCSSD

SHROOM3, Q8TF72 = target: T12, SHROOM3, Q8TF72
T12 sequence (Q8TF72 20-120, limits assumed, looked up): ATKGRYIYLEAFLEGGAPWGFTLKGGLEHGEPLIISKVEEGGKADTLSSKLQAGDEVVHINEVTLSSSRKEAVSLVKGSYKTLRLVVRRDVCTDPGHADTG

SIPA1L3, O60292 = target: T13, SIPA1L3, O60292
T13 sequence (O60292 961-1052, limits assumed, looked up): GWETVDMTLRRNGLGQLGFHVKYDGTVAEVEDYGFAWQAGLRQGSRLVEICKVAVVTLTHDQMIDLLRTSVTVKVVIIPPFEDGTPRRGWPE

TJP1_1, Q07157 = target: TJP1_1, Q07157
Sequence of TJP1_1, Q07157 (Q07157 18-120): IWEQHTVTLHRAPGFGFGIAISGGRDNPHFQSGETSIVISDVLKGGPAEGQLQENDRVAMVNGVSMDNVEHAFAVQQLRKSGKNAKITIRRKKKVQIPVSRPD

USH1C_1, Q9Y6N9 = target: T14, USH1C_1, Q9Y6N9
T14 sequence (Q9Y6N9 82-179, limits assumed, looked up): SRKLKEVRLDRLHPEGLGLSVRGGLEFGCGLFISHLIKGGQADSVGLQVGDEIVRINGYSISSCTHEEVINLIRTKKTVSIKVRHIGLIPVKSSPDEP

USH1C_3, Q9Y6N9 = target: T15, USH1C_3, Q9Y6N9
T15 sequence (Q9Y6N9 447-547, limits assumed, looked up): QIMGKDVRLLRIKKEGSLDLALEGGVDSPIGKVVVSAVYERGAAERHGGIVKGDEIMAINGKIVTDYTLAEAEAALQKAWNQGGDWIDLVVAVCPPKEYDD

Sequence of AHNAK2, Q8IVF2 (Q8IVF2 108-193): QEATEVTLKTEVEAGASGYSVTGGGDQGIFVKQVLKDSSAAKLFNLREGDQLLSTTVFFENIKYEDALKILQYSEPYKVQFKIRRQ
Sequence of IL16_2, Q14005 (Q14005 350-450): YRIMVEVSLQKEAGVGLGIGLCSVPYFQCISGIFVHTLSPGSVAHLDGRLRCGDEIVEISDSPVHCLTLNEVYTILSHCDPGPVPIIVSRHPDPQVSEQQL

## STLTIFETAL [ABCC4, O15439]
AHNAK2, Q8IVF2
  pKd: below the threshold
IL16_2, Q14005
  pKd: below the threshold
LNX2_4, Q8N448
  pKd: below the threshold
MPDZ_13, O75970
  pKd: below the threshold
NHERF1_1, O14745
  pKd: 5.36
NHERF3_2, Q5T2W1
  pKd: 4.06
PARD3B_2, Q8TEW8
  pKd: below the threshold
PDLIM3, Q53GG5
  pKd: 4.11
PDZD2_1, O15018
  pKd: 4.19
PDZD2_3, O15018
  pKd: 4.32
PDZD7_1, Q9H5P4
  pKd: 4.25
PTPN13_2, Q12923
  pKd: below the threshold
PTPN13_4, Q12923
  pKd: below the threshold
PTPN4, P29074
  pKd: 4.97
Q8TEW0
  pKd: below the threshold
Q92614
  pKd: below the threshold
Q9Y3R0
  pKd: below the threshold
RGS12, O14924
  pKd: below the threshold
SHROOM3, Q8TF72
  pKd: below the threshold
SIPA1L3, O60292
  pKd: below the threshold
TJP1_1, Q07157
  pKd: below the threshold
USH1C_1, Q9Y6N9
  pKd: 4.33
USH1C_3, Q9Y6N9
  pKd: below the threshold
